Measured values taken from US20150004189A1 (published 2015).

Experiments:
[1] = target: HLA-DQ molecule DQB1*0602 (human); assay: inhibition of radiolabeled peptide binding to purified HLA-DQ
[2] = target: HLA-DQ molecule DQB1*0502 (human); assay: as above
[3] = target: HLA-DQ molecule DQB1*0202 (human); assay: as above
[4] = target: HLA-DQ molecule DQB1*0503 (human); assay: as above
[5] = target: HLA DQ molecule DQB1*0602 (human); assay: inhibition of radiolabeled peptide binding to purified HLA class II
[6] = target: HLA DQ molecule DQB1*0202 (human); assay: as above
[7] = target: T1, HLA DP molecule DPB1*0401 (human); assay: competition vs radiolabeled peptide, purified HLA-DP
T1 chain 1: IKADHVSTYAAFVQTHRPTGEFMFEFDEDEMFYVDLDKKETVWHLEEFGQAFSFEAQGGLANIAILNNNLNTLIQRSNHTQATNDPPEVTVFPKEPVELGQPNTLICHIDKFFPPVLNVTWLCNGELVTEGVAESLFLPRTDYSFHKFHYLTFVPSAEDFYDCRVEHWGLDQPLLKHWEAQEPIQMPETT
T1 chain 2: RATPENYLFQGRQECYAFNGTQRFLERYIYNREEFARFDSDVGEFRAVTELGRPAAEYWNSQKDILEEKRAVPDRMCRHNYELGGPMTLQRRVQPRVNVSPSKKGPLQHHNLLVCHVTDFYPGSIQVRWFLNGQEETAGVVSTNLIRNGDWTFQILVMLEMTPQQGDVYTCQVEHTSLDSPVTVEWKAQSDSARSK

[8] = target: T2, HLA DP molecule DPB1*0201 (human); assay: as above
T2 chain 1: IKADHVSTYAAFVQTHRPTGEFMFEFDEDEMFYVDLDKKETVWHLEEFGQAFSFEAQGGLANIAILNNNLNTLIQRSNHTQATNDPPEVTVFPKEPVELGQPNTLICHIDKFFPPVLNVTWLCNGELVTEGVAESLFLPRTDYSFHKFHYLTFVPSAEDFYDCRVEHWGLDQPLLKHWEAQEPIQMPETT
T2 chain 2: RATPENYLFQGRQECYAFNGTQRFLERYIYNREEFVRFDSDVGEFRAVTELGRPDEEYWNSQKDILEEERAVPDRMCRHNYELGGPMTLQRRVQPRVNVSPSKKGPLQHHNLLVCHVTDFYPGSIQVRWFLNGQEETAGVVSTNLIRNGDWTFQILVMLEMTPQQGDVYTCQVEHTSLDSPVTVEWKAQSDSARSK

[9] = target: HLA DQ molecule DQB1*0502 (human); assay: inhibition of radiolabeled peptide binding to purified HLA class II
[10] = target: HLA DQ molecule DQB1*0503 (human); assay: as above
[11] = target: HLA DQ molecule DQB1*0502 (human); assay: as above; remark: listed apart in the source
[12] = target: HLA DQ molecule DQB1*0503 (human); assay: as above; remark: listed apart in the source
[13] = target: HLA DQ molecule DQB1*0602 (human); assay: as above; remark: listed apart in the source
HLA-DP DPB1*0401 = target: T3, HLA-DP DPB1*0401 (human); assay: inhibition of radiolabeled peptide binding to purified HLA-DP
T3 chain 1: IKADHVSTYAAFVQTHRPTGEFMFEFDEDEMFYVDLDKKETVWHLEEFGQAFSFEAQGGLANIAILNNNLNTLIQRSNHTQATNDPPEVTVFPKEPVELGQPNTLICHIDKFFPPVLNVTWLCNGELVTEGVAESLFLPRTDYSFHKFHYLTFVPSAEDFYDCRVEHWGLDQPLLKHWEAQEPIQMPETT
T3 chain 2: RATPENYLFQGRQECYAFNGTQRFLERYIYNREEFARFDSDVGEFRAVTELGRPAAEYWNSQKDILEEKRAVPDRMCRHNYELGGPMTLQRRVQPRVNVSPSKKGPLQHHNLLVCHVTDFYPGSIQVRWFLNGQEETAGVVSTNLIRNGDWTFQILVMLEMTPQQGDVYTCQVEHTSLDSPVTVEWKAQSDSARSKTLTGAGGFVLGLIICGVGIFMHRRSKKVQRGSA

[14] = target: HLA-DP molecule DPB1*2001 (human); assay: as above
[15] = target: T4, HLA-DP molecule DPB1*0401 (human); assay: as above
T4 chain 1: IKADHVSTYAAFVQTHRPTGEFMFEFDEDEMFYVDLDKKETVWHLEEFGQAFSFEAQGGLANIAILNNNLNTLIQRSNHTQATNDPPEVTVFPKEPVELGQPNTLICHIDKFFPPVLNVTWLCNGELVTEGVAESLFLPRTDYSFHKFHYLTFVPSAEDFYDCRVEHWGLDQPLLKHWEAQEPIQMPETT
T4 chain 2: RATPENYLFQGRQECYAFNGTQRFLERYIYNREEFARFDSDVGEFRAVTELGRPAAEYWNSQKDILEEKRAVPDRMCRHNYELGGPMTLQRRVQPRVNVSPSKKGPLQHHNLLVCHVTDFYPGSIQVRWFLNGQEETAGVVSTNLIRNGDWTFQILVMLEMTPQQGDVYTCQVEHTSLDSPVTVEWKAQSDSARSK

[16] = target: HLA-DP molecule DPB1*1401 (human); assay: as above
[17] = target: HLA DQ molecule DQB1*0202 (human); assay: inhibition of radiolabeled peptide binding to purified HLA class II; remark: listed apart in the source

B1: Que a 1 (16-30) peptide PARLFKAFVLDSDNL (peptide)
peptide: PARLFKAFVLDSDNL
B1 was tested, and the IC50 [1] was 2.6 µM, the IC50 [2] was 0.0079 µM and the IC50 [3] was 0.31 µM. It also gave an IC50 [4] of 0.161 µM.

B2: Lol p 2 peptide, position 51, DGVWEIKSDKPLKGP (Peptide ID 3324.1139) (peptide)
peptide: DGVWEIKSDKPLKGP
B2 showed an IC50 [5] of 26.6 µM and an IC50 [6] of 0.53 µM.

B3: Fel d 1 1 peptide, position 41, DEYVEQVAQYKALPV (Peptide ID 3324.1049) (peptide)
peptide: DEYVEQVAQYKALPV
For B3, the IC50 [7] was 0.533 µM and the IC50 [8] was 1.12 µM.

B4: Lol p 5 1 peptide, position 236, DSYKFIPTLVAAVKQ (Peptide ID 3324.1165) (peptide)
peptide: DSYKFIPTLVAAVKQ
For B4, the IC50 [9] was 50 µM, the IC50 [10] was 4.64 µM and the IC50 [6] was 5.86 µM.

B5: Der f 1 (131-145) peptide GSCWAFSGVAATESA, Peptide ID 3324.0670 (peptide)
peptide: GSCWAFSGVAATESA
For B5, the IC50 [11] was 9.32 µM, the IC50 [12] was 7.93 µM and the IC50 [13] was 1.33 µM.

B6: Fel d 1 2 peptide, position 26, IFYDVFFAVANGNEL (Peptide ID 3324.1052) (peptide)
peptide: IFYDVFFAVANGNEL
Work on B6 yielded an IC50 [7] of 0.242 µM and an IC50 [8] of 0.089 µM.

B7: Lol p 11 peptide 111-125 RYANPIAFFRKEPLK (Peptide ID 3324.1138) (peptide)
peptide: RYANPIAFFRKEPLK
B7 was tested, and the IC50 (HLA-DP DPB1*0401) was 2.06 µM.

B8: Lol p 5 1 peptide, position 306, PAAAYATATPAAATA (Peptide ID 3324.1184) (peptide)
peptide: PAAAYATATPAAATA
Binder B8 has an IC50 [9] of 7.45 µM, an IC50 [5] of 0.224 µM and an IC50 [6] of 0.679 µM.

B9: Poa p 5 peptide, position 121, ATPEAKFD5FVAAFT as printed in Table 8 (Peptide ID 3324.1570) (peptide)
peptide: ATPEAKFDSFVAAFT
B9 gave an IC50 [14] of 3.24 µM, an IC50 [15] of 4.85 µM and an IC50 [16] of 2.77 µM.

B10: Que a 1 peptide 16-30 PARLFKAFVLDSDNL (Peptide ID 3324.1585) (peptide)
peptide: PARLFKAFVLDSDNL
With B10 the IC50 (HLA-DP DPB1*0401) was 0.052 µM.

B11: Fel d 1 2 (21-35) peptide AETCPIFYDVFFAVA, Peptide ID 3324.1056 (peptide)
peptide: AETCPIFYDVFFAVA
For B11, the IC50 [17] was 2.1 µM.

B12: Lol p 11 peptide, position 116, IAFFRKEPLKECGGI (Peptide ID 3337.0029) (peptide)
peptide: IAFFRKEPLKECGGI
For B12, the IC50 [9] was 1.44 µM, the IC50 [5] was 50 µM and the IC50 [10] was 0.903 µM. For the same binder, the IC50 [6] was 26.2 µM.

B13: Lol p 3 peptide, position 51, LWEVKSAKPLTGPMN (Peptide ID 3337.0031) (peptide)
peptide: LWEVKSAKPLTGPMN
B13 showed an IC50 [5] of 3.95 µM and an IC50 [6] of 2.44 µM.

B14: Lol p 2 peptide, position 56, IKSDKPLKGPFNFRF (Peptide ID 3324.1140) (peptide)
peptide: IKSDKPLKGPFNFRF
Work on B14 yielded an IC50 [9] of 38.2 µM, an IC50 [5] of 50 µM and an IC50 [10] of 50 µM.

B15: Alt a 7 (6-20) peptide AIVYYSMYGHIKKMA, Peptide ID 3324.0085 (peptide)
peptide: AIVYYSMYGHIKKMA
B15 was tested, and the IC50 [17] was 6.24 µM and the IC50 [13] was 3.35 µM.

B16: Lol p 2 peptide 51-65 DGVWEIKSDKPLKGP (Peptide ID 3324.1139) (peptide)
peptide: DGVWEIKSDKPLKGP
With B16 the IC50 (HLA-DP DPB1*0401) was 5.21 µM.

B17: Lol p 5 1 peptide, position 151, DAYVATLTEALRVIA (Peptide ID 3324.1167) (peptide)
peptide: DAYVATLTEALRVIA
For B17, the IC50 [14] was 0.597 µM, the IC50 [15] was 0.515 µM and the IC50 [16] was 4.4 µM.

B18: Der f 1 (136-150) peptide FSGVAATESAYLAYR, Peptide ID 3324.0666 (peptide)
peptide: FSGVAATESAYLAYR
In the case of B18, the IC50 [11] is reported as 1.21 µM, the IC50 [12] is reported as 4.19 µM and the IC50 [13] is reported as 2.02 µM.

B19: Dac g 2 (11-25) peptide GSDEKNLALSIKYNK (peptide)
peptide: GSDEKNLALSIKYNK
B19 gave an IC50 [1] of 0.13 µM, an IC50 [3] of 7.2 µM and an IC50 [4] of 50 µM.

B20: Pha a 5 peptide, position 121, DAFIAALTEALRVIA (Peptide ID 3324.1432) (peptide)
peptide: DAFIAALTEALRVIA
B20 gave an IC50 [14] of 0.031 µM and an IC50 [16] of 29.7 µM.

B21: Lol p 5 1 peptide, position 151, DAYVATLTEALRVIA (Peptide ID 3324.1167) (peptide)
peptide: DAYVATLTEALRVIA
Binder B21 has an IC50 [9] of 50 µM, an IC50 [10] of 50 µM and an IC50 [6] of 1.8 µM.

B22: Cup s 1 peptide 86-100 EKALWIIFSQNMNIK (Peptide ID 3324.0615) (peptide)
peptide: EKALWIIFSQNMNIK
B22 showed an IC50 (HLA-DP DPB1*0401) of 1.54 µM.

B23: Der f 1 peptide, position 131, GSCWAFSGVAATESA (Peptide ID 3324.0670) (peptide)
peptide: GSCWAFSGVAATESA
B23 gave an IC50 [7] of 14.4 µM and an IC50 [8] of 9.31 µM.
